Assay results reported in patent US20180346555A1.

Legend:
[1] = target: Alder (Aln g 1, MyBiosource, Cat# MBS 1041484) (Alder) (UniProt P38948); assay: SPR Biacore 4000, mAb captured by anti-human Fc, 25 C
[2] = target: Apple (Mal d 1, MyBiosource, Cat# MBS 1224919) (Apple) (UniProt P43211); assay: as above
[3] = target: Celery (Api g 1, MyBiosource, Cat# MBS 1171376) (Celery) (UniProt P49372); assay: as above
[4] = target: European Hornbeam (Car b 1 isoform 1A & 1B, MyBiosource, Cat#MBS 1200018) (European Hornbeam) (UniProt P38949); assay: as above
[5] = target: European Hornbeam (Car b 1 isoform 2, MyBiosource, Cat# MBS 1043940) (European Hornbeam) (UniProt P38950); assay: as above
[6] = target: Hazel (Cor A 1, MyBiosource, Cat# MBS5304600) (Hazel) (UniProt Q08407); assay: as above
[7] = target: natural Bet v 1 (Indoor Biotechnologies, # NA-BV1-1) (Betula verrucosa (Betula pendula)) (UniProt P15494); assay: blocking ELISA, captured IgE of donor 23658-MD, 1 ug/mL antibody
[8] = target: natural Bet v 1 (Indoor Biotechnologies, # NA-BV1-1) (Betula verrucosa (Betula pendula)) (UniProt P15494); assay: blocking ELISA, captured IgE of donor 26532-CC, 1 ug/mL antibody
[9] = target: natural Bet v 1 (Indoor Biotechnologies, # NA-BV1-1) (Betula verrucosa (Betula pendula)) (UniProt P15494); assay: blocking ELISA, captured IgE of donor 25299-RJ, 1 ug/mL antibody
[10] = target: natural Bet v 1 (Indoor Biotechnologies, # NA-BV1-1) (Betula verrucosa (Betula pendula)) (UniProt P15494); assay: dose-response blocking ELISA, captured IgE of donor 23939-MH, at 1 ug/mL antibody
[11] = target: natural Bet v 1 (Indoor Biotechnologies, # NA-BV1-1) (Betula verrucosa (Betula pendula)) (UniProt P15494); assay: blocking ELISA, captured IgE of donor 25340-RR, 1 ug/mL antibody
[12] = target: natural Bet v 1 (Indoor Biotechnologies, # NA-BV1-1) (Betula verrucosa (Betula pendula)) (UniProt P15494); assay: blocking ELISA, captured IgE of donor 25609-MS, 1 ug/mL antibody
[13] = target: natural Bet v 1 (Indoor Biotechnologies, # NA-BV1-1) (Betula verrucosa (Betula pendula)) (UniProt P15494); assay: dose-response blocking ELISA, captured IgE of donor 25340-RR, at 1 ug/mL antibody
[14] = target: natural Bet v 1 (Indoor Biotechnologies, # NA-BV1-1) (Betula verrucosa (Betula pendula)) (UniProt P15494); assay: blocking ELISA, captured IgE of donor 29718-MW, 1 ug/mL antibody
[15] = target: natural Bet v 1 (Indoor Biotechnologies, # NA-BV1-1) (Betula verrucosa (Betula pendula)) (UniProt P15494); assay: blocking ELISA, captured IgE of donor 23035-BL, 1 ug/mL antibody
[16] = target: natural Bet v 1 (Indoor Biotechnologies, # NA-BV1-1) (Betula verrucosa (Betula pendula)) (UniProt P15494); assay: blocking ELISA, captured IgE of donor 25414-CW, 1 ug/mL antibody
[17] = target: natural Bet v 1 (Indoor Biotechnologies, # NA-BV1-1) (Betula verrucosa (Betula pendula)) (UniProt P15494); assay: blocking ELISA, captured IgE of donor 22627-MN, 1 ug/mL antibody
[18] = target: natural Bet v 1 (Indoor Biotechnologies, # NA-BV1-1) (Betula verrucosa (Betula pendula)) (UniProt P15494); assay: dose-response blocking ELISA, captured IgE of donor 25609-MS, at 1 ug/mL antibody
[19] = target: natural Bet v 1 (Indoor Biotechnologies, # NA-BV1-1) (Betula verrucosa (Betula pendula)) (UniProt P15494); assay: blocking ELISA, captured IgE of donor 23939-MH, 1 ug/mL antibody

Alder (Aln g 1, MyBiosource, Cat# MBS 1041484) (Alder), sequence (P38948 2-160 limits assumed): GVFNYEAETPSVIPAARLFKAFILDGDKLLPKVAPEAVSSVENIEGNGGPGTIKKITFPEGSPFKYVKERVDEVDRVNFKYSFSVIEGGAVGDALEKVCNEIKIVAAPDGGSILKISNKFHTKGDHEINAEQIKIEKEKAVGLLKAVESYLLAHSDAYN
European Hornbeam (Car b 1 isoform 1A & 1B, MyBiosource, Cat#MBS 1200018) (European Hornbeam), sequence (P38949 2-160): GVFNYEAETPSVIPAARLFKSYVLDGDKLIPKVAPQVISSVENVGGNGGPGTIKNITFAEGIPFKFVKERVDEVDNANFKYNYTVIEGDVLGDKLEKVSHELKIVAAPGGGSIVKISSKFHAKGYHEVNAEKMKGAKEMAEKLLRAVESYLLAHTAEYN
Celery (Api g 1, MyBiosource, Cat# MBS 1171376) (Celery), sequence (P49372 whole entry, canonical isoform): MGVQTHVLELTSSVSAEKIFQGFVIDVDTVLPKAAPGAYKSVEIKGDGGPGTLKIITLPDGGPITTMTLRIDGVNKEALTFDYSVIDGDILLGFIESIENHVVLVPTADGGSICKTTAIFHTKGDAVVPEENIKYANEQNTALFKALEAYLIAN
European Hornbeam (Car b 1 isoform 2, MyBiosource, Cat# MBS 1043940) (European Hornbeam), sequence (P38950 2-160 limits assumed): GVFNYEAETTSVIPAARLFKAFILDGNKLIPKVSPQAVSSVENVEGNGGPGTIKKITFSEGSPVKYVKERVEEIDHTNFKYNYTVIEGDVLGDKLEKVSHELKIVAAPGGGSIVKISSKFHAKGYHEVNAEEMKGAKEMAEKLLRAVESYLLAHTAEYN
Apple (Mal d 1, MyBiosource, Cat# MBS 1224919) (Apple), sequence (P43211 2-159 limits assumed): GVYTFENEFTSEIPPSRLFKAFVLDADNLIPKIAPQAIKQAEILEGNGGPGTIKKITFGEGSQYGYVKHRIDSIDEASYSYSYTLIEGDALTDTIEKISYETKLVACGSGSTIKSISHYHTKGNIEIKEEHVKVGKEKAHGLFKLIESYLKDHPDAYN
Hazel (Cor A 1, MyBiosource, Cat# MBS5304600) (Hazel), sequence (Q08407 2-160 limits assumed): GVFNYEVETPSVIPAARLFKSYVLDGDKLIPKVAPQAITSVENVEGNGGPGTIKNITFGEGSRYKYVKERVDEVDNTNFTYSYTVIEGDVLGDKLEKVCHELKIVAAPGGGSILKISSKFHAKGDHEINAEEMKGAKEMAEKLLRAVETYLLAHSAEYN

**Q.** Which 100 nM Analyte Bound (RU) [1] does the source give for Isotype Control (antibody) here?
**A.** 0 RU

**Q.** What about the 100 nM Analyte Bound (RU) [2] of the same substance?
**A.** 0 RU

**Q.** And the 100 nM Analyte Bound (RU) [3]?
**A.** -1 RU

**Q.** What about the 100 nM Analyte Bound (RU) [4] of the same substance?
**A.** 0 RU

**Q.** What about the 100 nM Analyte Bound (RU) [5] of the same substance?
**A.** 0 RU

**Q.** What about the 100 nM Analyte Bound (RU) [6] of the same substance?
**A.** 1 RU

**Q.** What does the source list for Isotype control (antibody)?
**A.** Percent Blocking [7]: -3%; Percent Blocking [8]: -4%; Percent Blocking [9]: -4%; Percent Blocking [10]: 16.8%; Percent Blocking [11]: -1%; Percent Blocking [12]: -2%; Percent Blocking [13]: 10.6%; Percent Blocking [14]: -2%; Percent Blocking [15]: -5%; Percent Blocking [16]: -4%; Percent Blocking [17]: -3%; Percent Blocking [18]: 8.8%; Percent Blocking [19]: -2%
